T1: GST-Ets1 fusion protein (UniProt P14921 1-441)
T1 construct: Transcription factor Ets1 fused to GST; the only Ets1 cDNA it names is human ETS1 (pSG5-hEts1); also called purified GST-Ets1 fusion; source: recombinant fusion protein, prepared using glutathione-sepharose resin as previously described [40]; held on the resin
T1 sequence (looked up): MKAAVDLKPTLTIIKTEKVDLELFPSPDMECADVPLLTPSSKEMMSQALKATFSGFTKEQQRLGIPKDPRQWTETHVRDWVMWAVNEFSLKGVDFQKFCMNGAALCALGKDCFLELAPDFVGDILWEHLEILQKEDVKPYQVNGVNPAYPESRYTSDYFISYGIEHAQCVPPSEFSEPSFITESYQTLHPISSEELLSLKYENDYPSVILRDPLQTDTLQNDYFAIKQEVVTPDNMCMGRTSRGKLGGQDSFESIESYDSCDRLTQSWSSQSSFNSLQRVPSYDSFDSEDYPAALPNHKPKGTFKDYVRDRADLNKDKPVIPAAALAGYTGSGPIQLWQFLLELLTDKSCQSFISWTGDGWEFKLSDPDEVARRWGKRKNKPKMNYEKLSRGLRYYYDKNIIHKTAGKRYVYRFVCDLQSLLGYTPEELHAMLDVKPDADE


Biological target: T1, GST-Ets1 fusion protein
Experiment: pull-down; GST or GST-Ets1 (4 µg/20 µL glutathione-sepharose resin) in 0.5 mL binding buffer (40 mM HEPES pH 7.5, 100 mM NaCl, 5 mM MgCl2, 0.1 mM EDTA, 0.05% Nonidet P-40, 1 mM DTT); GreenLys-labeled ERα (5 µL) 30 min at 4°C, labeled NCOA (5 µL) a further 2 h, alone or in combination; washed 3 times with 0.1% Triton X-100; SDS-PAGE, fluorescence imaging, percent of input bound
Details: one partner purified

Row | Binder | percent of labeled input bound [%]
1 | nuclear receptor coactivator NCOA3 (AIB/SRC3), GreenLys-labeled (natural protein, Fluorotect GreenLys-labeled (fluorescent lysines built in during translation), plasmid PCR3.1 SRC3/NCOA3 from O'Malley and Smith; source: in vitro translated (TNT coupled transcription-translation reticulocyte lysate, T7 polymerase) from PCR3.1 SRC3/NCOA3) not shown | 26
2 | nuclear receptor coactivator NCOA1 (SRC1), GreenLys-labeled (natural protein, Fluorotect GreenLys-labeled (fluorescent lysines built in during translation), plasmid PCR3.1 SRC1/NCOA1 from O'Malley and Smith; source: in vitro translated (TNT coupled transcription-translation reticulocyte lysate, T7 polymerase) from PCR3.1 SRC1/NCOA1) not shown | 27
3 | estrogen receptor α (ERα), GreenLys-labeled (receptor, human, UniProt P03372 1-595, looked up, Fluorotect GreenLys-labeled (fluorescent lysines built in during translation), also called hERα; fluorescently labeled ERα; source: in vitro translated (TNT coupled transcription-translation reticulocyte lysate, T7 polymerase) from pcDNA3.1 ERα) MTMTLHTKASGMALLHQIQGNELEPLNRPQLKIPLERPLGEVYLDSSKPAVYNYPEGAAYEFNAAAAANAQVYGQTGLPYGPGSEAAAFGSNGLGGFPPLNSVSPSPLMLLHPPPQLSPFLQPHGQQVPYYLENEPSGYTVREAGPPAFYRPNSDNRRQGGRERLASTNDKGSMAMESAKETRYCAVCNDYASGYHYGVWSCEGCKAFFKRSIQGHNDYMCPATNQCTIDKNRRKSCQACRLRKCYEVGMMKGGIRKDRRGGRMLKHKRQRDDGEGRGEVGSAGDMRAANLWPSPLMIKRSKKNSLALSLTADQMVSALLDAEPPILYSEYDPTRPFSEASMMGLLTNLADRELVHMINWAKRVPGFVDLTLHDQVHLLECAWLEILMIGLVWRSMEHPGKLLFAPNLLLDRNQGKCVEGMVEIFDMLLATSSRFRMMNLQGEEFVCLKSIILLNSGVYTFLSSTLKSLEEKDHIHRVLDKITDTLIHLMAKAGLTLQQQHQRLAQLLLILSHIRHMSNKGMEHLYSMKCKNVVPLYDLLLEMLDAHRLHAPTSRGGASVEETDQSHLATAGSTSSHSLQKYYITGEAEGFPATV | 10
4 | nuclear receptor coactivator NCOA2 (SRC2), GreenLys-labeled (natural protein, Fluorotect GreenLys-labeled (fluorescent lysines built in during translation), plasmid PCR3.1 SRC2/NCOA2 from O'Malley and Smith; source: in vitro translated (TNT coupled transcription-translation reticulocyte lysate, T7 polymerase) from PCR3.1 SRC2/NCOA2) not shown | 9
